Reference: the DeepSol protein solubility set

Assay: soluble on expression in E. coli; label from the status in PepcDB or PDB records

Sequence | soluble on expression in E. coli
LFPDELIDQLLAQVQGKDAESILGESGLAGQLKKQLAERMLAAELSHHLAAETEQGRAGNHRNGTSAKTVLTPNGELKLDIPRDRQATFEPQLVGKYQRRLPGFDDHVISMYARGMSVREIQGHLLELYGLQVSPDLISTVTDEVLADVEQWQQRPLEAMYPIVYFDALRLKIRDEGTVKNKAVYLALGIRAEGRKEVLGLWIEQTEGAKFWLKVFNELRTCQEFRVLRPVK | not soluble
GSHMSQSFGRVLTIVHSDCALLERDGNISLLSLPVAERWLRQAQLTPGEAPVCAQPLLIPLRLKVSAEEKSALEKAQSALAELGIDFQSDAQHVTIRAVPLPLRQQNLQILIPELIGYLAKQSVFEPGNIAQWIARNLMSEHAQWSMAQAITLLADVERLCPQLVKTPPGGLLQSVDLHPAIKALKDE | soluble
MHISEVKTAFKIADVEYVKDSTKLNFNYLKDLKDENNQPLSQNILTQNVARVYLIVVNGEIKKIGGSQADGGIKSTLNIYKDGGVKGRPNIRSFGVWYFLYHTILTGAKIEFYMIYQPNFETQVKGLFGFCAIKDASISYKLLEQACLTDYRNNSNDALPEWNVQEQGKD | not soluble
MSVKTWRKIAIDIIRDFDHNIMPLFGNPKASETISISPSGDETKVVDKVAENIIISKFKDLGVNVVSEEIGRIDQGSDYTVVVDPLDGSYNFINGIPFFAVSVAIFHEKDPIYAFIYEPIVERLYEGIPGKGSYLNGEKIKVRELAEKPSISFYTKGKGTKIIDKVKRTRTLGAIALELAYLARGALDAVVDIRNYLRPTDIAAGVVIAREAGAIVKDLDGKDVEITFSATEKVNIIAANNEELLETILRSIEK | soluble
MSNLIELALRNAALDRTKLLSQVQKIEFLNGYDPRFVEGLISLEMIGDIDEYVASLMYVKMTDKYTQEEKEQLTDTILTINNDRLISCQYRFPQLYQKLMQDQFLSTFFSSSHLLPNIAPGTNNQSYETVSTNNKMKMESAKLYGHYEYYQCVVALITQIDGSRYFYHLNPNRIFGDYMGSAPLKLSGSELKDVKDITFILHPRSMVDYREFQRLQERNIVFKTVMLPVGAKSVSLSYDTDKDVLTVNNLEAGQTVTYNNLLQTPQYNRYQYTPEQYFMTQLYRGQTWAEALGEALDKYIVTRQEGATWWDLKPLFFNRKTTKNNMIAAARIKKEIEAGATSFDFTGVSRNGLLNQLLTTAVDYQLEYQRGLQNGVLSAEDLTTSAALR | not soluble
MSDSSQLHKVAQRANRMLNVLTEQVQLQKDELHANEFYQVYAKAALAKLPLLTRANVDYAVSEMEEKGYVFDKRPAGSSMKYAMSIQNIIDIYEHRGVPKYRDRYSEAYVIFISNLKGGVSKTVSTVSLAHAMRAHPHLLMEDLRILVIDLDPQSSATMFLSHKHSIGIVNATSAQAMLQNVSREELLEEFIVPSVVPGVDVMPASIDDAFIASDWRELCNEHLPGQNIHAVLKENVIDKLKSDYDFILVDSGPHLDAFLKNALASANILFTPLPPATVDFHSSLKYVARLPELVKLISDEGCECQLATNIGFMSKLSNKADHKYCHSLAKEVFGGDMLDVFLPRLDGFERCGESFDTVISANPATYVGSADALKNARIAAEDFAKAVFDRIEFIRSN | soluble
MGSDKIHHHHHHMDTQQLYFLNDIGKQKPESIRNRSAACPFCDRENLTDILATEGSIIWLKNKFPTLKDTFQTVLIETDNCEDHIATYTEEHMRSLIRFSIKHWLNLQKNEEFTSVILYKNHGPFSGGSLHHAHMQIIGMKYVNYLDNVEQDNFQGVIVQKNEHIELNISDRPIIGFTEFNIIIEDIGCIDELANYIQQTVRYILTDFHKGCSSYNLFFYYLNEKIICKVVPRFVVSPLYVGYKIPQVSTKIEDVKIQLAAYFTKQNDAIIHKKIE | not soluble
MLRVRCLRGGSRGAEAVHYIGSRLGRTLTGWVQRTFQSTQAATASSRNSCAADDKATEPLPKDCPVSSYNEWDPLEEVIVGRAENACVPPFTIEVKANTYEKYWPFYQKQGGHYFPKDHLKKAVAEIEEMCNILKTEGVTVRRPDPIDWSLKYKTPDFESTGLYSAMPRDILIVVGNEIIEAPMAWRSRFFEYRAYRSIIKDYFHRGAKWTTAPKPTMADELYNQDYPIHSVEDRHKLAAQGKFVTTEFEPCFDAADFIRAGRDIFAQRSQVTNYLGIEWMRRHLAPDYRVHIISFKDPNPMHIDATFNIIGPGIVLSNPDRPCHQIDLFKKAGWTIITPPTPIIPDDHPLWMSSKWLSMNVLMLDEKRVMVDANEVPIQKMFEKLGITTIKVNIRNANSLGGGFHAWTCDVRRRGTLQSYLD | soluble
QTNNDEELQDMSDPLAVYTQAGFGITDKGANIKIGQTYQSSQPGTMAMNIIEMKGIGGELFGIRDNDDPMYANVDDSIDSFRLRNFQVEVAKGLGRQLDVNYDVDNDKLDASYSFIQGLPK | not soluble
MYVVKSANDGGNSLFLSSSDIVNQLSKTETGKKHLKTLTGNLYPFKTPASFDKKQGVRWGNILSVNTQMIRFRSDCIYKGIEENRNKVSKEMVLALDYLINVIKNASDIQEFSAQDDGLIIIDNVNGLHARTDYTDKNRHYIRARITV | not soluble
MSRISVENVKHVAHLARLAITDQEAEKFQKQLDAIVTFAEQLNELDTTDVKPTTHVLTMKNVMREDVPEKGLPVEEVLKNAPDHKDNQIRVPAVLE | not soluble
PIGKATDNMYSYLALLQDDPTIQIVNQAQKAYVEKVAPSIAAMAGLPILSAGAPFKAGGRKNDPTGYTEVNKGKLTFRNAADLYLYPNTLVVVKATGEQLKEWLECSAGMFKQIDPTSDKPQSLIDWEGFRTYNFDVIDGVNYEYDLTKPARYDGECKLINPESHRVVNLTYQGKPVDPKAEFLIATNNYRAYGNKFPGTGDKHIVYASPDESRQILADYIKATSEKEGSVNPNADKNWRFVPI | not soluble
NSFFKTGWKRFYLKWYGQDHPSAQALCPYTTELLKQFPNIKAAMFTALPPGSRLVRHRDPFAGSVRYHLGLITPNDDRCYIDVDGQQYSWRDGEAVIFDETYLHYAENTTDQNRIILFCDVERPMWFWPARVVNRIVSRVLVGAANSPN | not soluble
MGSDKIHHHHHHMHTEVQEYGLSLRWVRFIFAAKEILINMVYKVFLSLCIGLALSASAALHAQKAVSGHAPIQVETPARSSGQKHVLQLVTPKLETVRIGIIGLGMRGPGAVERFSKIPGTQIVALCDVLPERVKKTQEILVKAGLPEAAAYSGSEDAWKKLCEREDIDLVYIVTDWKTHAEMGVYAMEHGKHAAIEVPAAMTLEEIWKLIDTSERTRKHCIQLENCVYDFFELTTLNMAHQGVFGEILHAEGAYIHNLEDFWPYYWNNWRLDYNRKHRGDVYATHGMGPACQLLDIHRGDRMKTIVAMDTKAVNGPAYIKNKTGEVVADFQNGDQTTSLIRTEKGKTLLIQHNVMTPRPYSRKYQAVGTDGFADKYPLEMYCLRPAQVDSDIAPDHEKLNAHGPVSEEVKKALMEKYKHPIHRELEETAKKVGGHGGMDYIMDYRLIYCLRNGLPLDMDVYDLAEWCCLAELSRISIENGSAPVAIPDFTRGNWDKVKGYRHAMAE | not soluble
MEQIHGGDSNSGGGGGGSSRNDEISVTRASRFDALPEDCISKVISHTSPRDACVVASVSKSVKSAAQSDLVWEMFLPSEYSSLVLQSANHLSKKEIFLSLADNSVLVENGKKSFWVEKASGKKCYMLSAMELTIIWGDSPAYWKWITVPESKFEKVAELRNVCWFEVRGKISCGMLSKGTHYSVYVVFKTANGRSYGFDLVPVEAGVGFVGKVATKKSVYFESGNADSRSATSHYSGISEEEEEVEGERERGMNVVGPKERVDGWSEVELGKFYINNGGCGDDGSDEIEISIMETQNGNWKSGLIIQGIEIRPERSN | soluble
SIMTVRTTHTEVEVHAGGTVELPCSYQLANDTQPPVISWLKGASPDRSTKVFKGNYNWQGEGLGFVESDSYKESFGDFLGRASVANLAAPTLRLTHVHPQDGGRYWCQVAQWSIRTEFGLDAKSVVLKVTGHTPSNNVHVSTAEVVQVDEGNDITMTCPCTDCANANVTWYTGPTFFENYETGTYQPLANKNQFGITWFSSEIAGRASFSGARNLVIRAAKITDAGRVWCELATGQGELDADRSSTILKV | soluble
